Measured values from patent publication US20050090643A1.

These binders were tested against viral envelope glycoprotein gp120 of human immunodeficiency virus (HIV-1) (HIV-1) (assay: cell-based or functional assay).

Binder | IC50 in quantitative vaccinia virus-based HIV-1 fusion assay [nM] | average KD from non-linear least squares best fitting of HIV-1 fusion assay titration data to a two-independent site model [nM]
dimeric wild-type CVN (protein) LGKFSQTCYNSAIQGSVLTSTCERTNGGYNTSSIDLNSVIENVDGSLKWQPSNFIETCRNTQLAGSSELAAECKTRAQQFVSTKINLDDHIANIDGTLKYE | 9 | 21
monomeric wild-type CVN (protein) LGKFSQTCYNSAIQGSVLTSTCERTNGGYNTSSIDLNSVIENVDGSLKWQPSNFIETCRNTQLAGSSELAAECKTRAQQFVSTKINLDDHIANIDGTLKYE | 32 | 67
CVN Gln50 deletion mutant (ΔQ50-CVN), obligate domain-swapped dimer of cyanovirin (protein) LGKFSQTCYNSAIQGSVLTSTCERTNGGYNTSSIDLNSVIENVDGSLKWPSNFIETCRNTQLAGSSELAAECKTRAQQFVSTKINLDDHIANIDGTLKYE | 9 | 22
